Test results published in patent US20240003871A1, “IPSC-DERIVED ASTROCYTES AND METHODS OF USE THEREOF” (FUJIFILM Cellular Dynamics, Inc., priority 2022, published 2024).

Tested on: Astrocytes
Test: Luminex assay of proteins secreted by astrocytes after cytokine stimulation
Type: cell-based, human
Conditions: stimulation in basal medium for 24 hours; average of four lots
Protocol: FIGS. 8A-8J: Astrocytes from four lots were thawed and cultured for 7 days in Astro 3 media, before stimulation in basal medium for 24 hours. Supernatant was collected and assayed using a custom Luminex assay from R&D on the FLEXMAP 3D instrument, according to manufacturer's instructions. Each condition was run in duplicate, with the average of all four lots compared to the control (unstimulated) condition to calculate fold change. Error bars are +/−1 SEM. […] The combination of IFN-gamma with TNF-alpha produced the highest fold-change over control, with over 84-fold secretion of IL-1ra compared to control. IL-1ra binds to cell surface IL-1 receptors, blocking binding of pro-inflammatory IL-1alpha and IL-1beta. […] TNF-alpha combined with either IL-1alpha or IL-1beta increased IL-6 secretion by over 3300-fold compared to control. IL-6 attracts pro-inflammatory T cells and promotes demyelination. […] TNF-alpha combined with either IL-1alpha or IL-1beta increased IL-8 secretion by over 12,000-fold compared to control. IL-8/CXCL8 is secreted by astrocytes to attract pro-inflammatory immune cells after insults. This analyte also plays a role in recruitment and differentiation of oligodendrocyte precursor cells (OPCs) to promote remyelination. […] TNF-alpha alone, or combined with IL-1alpha, IL-1beta or IFN-gamma increased IL-10 secretion by over 1000-fold compared to control. IL-10 is secreted by astrocytes to reduce iNos activity and reduce astrogliosis. […] TNF-alpha alone, or combined with IL-1alpha, IL-1beta or IFN-gamma increased CCL5/RANTES secretion by over 2500-fold compared to control. CCL5/RANTES controls the movements of peripheral immune cells. […] TNF-alpha combined with IL-1alpha or IL-1beta increased CCL7 secretion by over 15,000-fold compared to control. CCL7 is important for astrocyte-microglia interactions and induces microglia activation. […] Stimulation with IL-1alpha or TNF-alpha alone increased CCL20 secretion by over 18-fold over unstimulated control. TNF-alpha combined with IL-1alpha, IL-1beta or IFN-gamma increased CCL20 secretion by over 100-fold compared to control. CCL20 is secreted by astrocytes in response to pro-inflammatory stimuli and attracts T-cells, B-cells and DCs. […] Stimulation with IL-1alpha increased CXCL1 secretion by 84-fold over unstimulated control. TNF-alpha combined with IL-1alpha or IL-1beta increased CXCL1 secretion by over 450-fold compared to control. CXCL1 is secreted by astrocytes to recruit neutrophils to the site of infection, and increases BBB permeability. […] CXCL2 activates CXCR2, found on oligodendrocytes and OPCs, which increases OPC proliferation and differentiation. […] CXCL5 is secreted by astrocytes in response to injury and activates microglia, resulting in decreased microglia phagocytosis and inhibition.
Astrocytes from four lots were thawed and cultured for 7 days in Astro 3 media, before stimulation in basal medium for 24 hours. Supernatant was collected and assayed using a custom Luminex assay from R&D on the FLEXMAP 3D instrument, according to manufacturer's instructions. […] The combination of IFN-gamma with TNF-alpha produced the highest fold-change over control, with over 84-fold secretion of IL-1ra compared to control. IL-1ra binds to cell surface IL-1 receptors, blocking binding of pro-inflammatory IL-1alpha and IL-1beta.

Molecule	CCL7 secretion, fold change over unstimulated control [fold]	IL-1ra secretion, fold change over unstimulated control	IL-8/CXCL8 secretion, fold change over unstimulated control	CCL5/RANTES secretion, fold change over unstimulated control [fold]	CXCL1 secretion, fold change over unstimulated control [fold]	CXCL2 secretion, fold change over unstimulated control [fold]	CXCL5 secretion, fold change over unstimulated control [fold]	IL-6 secretion, fold change over unstimulated control	IL-10 secretion, fold change over unstimulated control
TNF-alpha	1184	three	898 fold						
IL-1alpha: pro-inflammatory cytokine used to stimulate astrocytes (protein, UniProt P01583 113-271, looked up) Interleukin-1 alpha: SAPFSFLSNVKYNFMRIIKYEFILNDALNQSIIRANDQYLTAAALHNLDEAVKFDMGAYKSSKDDAKITVILRISKTQLYVTAQDEDQPVLLKEMPEIPKTITGSETNLLFFWETHGTKNYFTSVAHPNLFIATKQDYWVCLAGGPPSITDFQILENQA	2177	three	over 3300 fold	156	84	379	161	over 400 fold	over 415 fold
IFN-gamma: cytokine used to stimulate astrocytes (protein, UniProt P01579 24-161, looked up) Interferon gamma: QDPYVKEAENLKKYFNAGHSDVADNGTLFLGILKNWKEESDRKIMQSQIVSFYFKLFKNFKDDQSIQKSVETIKEDMNVKFFNSNKKKRDDFEKLTNYSVTDLNVQRKAIHELIQVMAELSPAAKTGKRKRSQMLFRG		robust secretion						32 fold	161 fold
